From patent US20210072252A1 come the findings set out here.

Experiment [1] deals with T1, Leu.
T1 sequence (peptide): LGMMGSSC
The experiment is described as follows: single-molecule TIRF, Cy5-labelled protein on peptide immobilized on nanogel.

Experiment [2] concerns the target peptide with N-terminal phosphotyrosine. The experiment is described as follows: biolayer interferometry (Blitz), peptide-coated sensor, NAAB in 1x PBS, 1:1 fit, kd/ka. On the technique in general: In BLI a coated tip is dipped into the sample, and binding shifts an interference pattern.

B1: engineered MetRS domain (Met NAAB), GST-MetRS fusion labeled with Cy5 (designed binder, not shown: a dimerising Fc or GST)
chain: AKKILVTCASPYANGSIHLGHMLEHIQADVWVRYQRMRGHEVNFICADDAHGTPIMLKAQQLGITPEQMIGEMSQEHQTDFAGFNISYDNYHSTHSEENRQLSELIYSRLKENGFIKNRTISQLYDPEKGMFLPDRFVKGTCPKCKSPDQYGDNCEVCGATYSPTELIEPKSVVSGATPVMRDSEHFFFDLPSFSEMLQAWTRSGALQEQVANKMQEWFESGLQQWDISRDAPYFGFEIPNAPGKYFYVWLDAPIGLMGSFKNLCDKRGDSVSFDEYWKKDSTAELYHFIGKGIVYFLSLFWPAMLEGSNFRKPSNLFVHGYVTVNGAKMSKSRGTFIKASTWLNHFDADSLRYYYTAKLSSRIDDIDLNLEDFVQRVNADIVNKVVNLASRNAGFINKRFDGVLASELADPQLYKTFTDAAEVIGEAWESREFGKAVREIMALADLANRYVDEQAPWVVAKQEGRDADLQAICSMGINLFRVLMTYLKPVLPKLTERAEAFLNTELTWDGIQQPLLGHKVNPFKALYNRIDMRQVEALVEASK
modifications: Cy5 fluorophore on lysine side chains
In experiment [1], B1 returned a Counts of 49 counts.

B2: Phosphotyrosine NAAB (designed binder)
chain: MDEFEMIKRNTSEIISELREVLKKDEKSALIGFEPSGKIHLGHYLQKKMIDLQNAGFDIIIPLADLHAYLNQKGELDEIRKIGDYNKKVFEAMLKAKYVYGSEFQLDKYTLNVYRLALKTTLKARRSMELIAREDENPVAEVIYPIMQVNGCHYKGVDVAVGGMEQRKIMLARELLPKKVVCIHPVLTGLDGEGKMSSSGNFIAVDDSPEEIRAFKKAYCPAGVVEGNPEIAKYFLEYPLTIKPEKFGGDLTVNSYEESLFKNKELHPMDLKAVAEELIKILEPIRK
As a reminder, the Kd is the equilibrium constant for the complex coming apart. B2 registered a dissociation constant Kd in experiment [2] of 1070 nM.
